Reference: article PMC4103834, “Structure-Based Rational Design to Enhance the Solubility and Thermostability of a Bacterial Laccase Lac15” (PLoS ONE, 2014)

Tested on: COc1cc(C=NN=Cc2cc(OC)c(O)c(OC)c2)cc(OC)c1O
Test: purified protein
Conditions: standard assay: 50 mM Na2HPO4-KH2PO4 pH 7.5, 100 µM CuSO4, 45 °C, conditions of the Km series not given separately

Row | Substance | Km | kcat
1 | Lac15 (uncultured bacterium) | 3.74 ± 0.37 µM | 1.39 ± 0.11 s⁻¹
2 | Lac15 (uncultured bacterium; DEL323-332) | 6.34 ± 0.19 µM | 1.69 ± 0.13 s⁻¹
3 | Lac15-His6 (uncultured bacterium) | 4.53 ± 0.21 µM | 1.35 ± 0.09 s⁻¹
